Measurements published in PMC12041854, “CARM1/PRMT4 facilitates XPF–ERCC1 heterodimer assembly and maintains nucleotide excision repair activity” (Nucleic Acids Research, 2025).

Tests used:
Experiment in all cases: pull-down; in vitro translated and purified XPF WT-Myc or R568K-Myc, with or without in vitro methylation by CARM1-FLAG beads (1 mM S-adenosylmethionine, 50 mM Tris-HCl pH 8.0, 10 mM DTT, 3 h at 30°C), then pulled down with GST-ERCC1; western blot
Settings in all cases: both partners purified
[1] = target: T1, in vitro translated XPF R568K-Myc (human, UniProt Q92889 1-916, R568K)
T1 construct: also called RK; source: in vitro translated (wheat germ cell-free system); used as reaction mixture, and purified (Ni-NTA, anti-Myc magnetic beads, Myc peptide elution)
T1 sequence: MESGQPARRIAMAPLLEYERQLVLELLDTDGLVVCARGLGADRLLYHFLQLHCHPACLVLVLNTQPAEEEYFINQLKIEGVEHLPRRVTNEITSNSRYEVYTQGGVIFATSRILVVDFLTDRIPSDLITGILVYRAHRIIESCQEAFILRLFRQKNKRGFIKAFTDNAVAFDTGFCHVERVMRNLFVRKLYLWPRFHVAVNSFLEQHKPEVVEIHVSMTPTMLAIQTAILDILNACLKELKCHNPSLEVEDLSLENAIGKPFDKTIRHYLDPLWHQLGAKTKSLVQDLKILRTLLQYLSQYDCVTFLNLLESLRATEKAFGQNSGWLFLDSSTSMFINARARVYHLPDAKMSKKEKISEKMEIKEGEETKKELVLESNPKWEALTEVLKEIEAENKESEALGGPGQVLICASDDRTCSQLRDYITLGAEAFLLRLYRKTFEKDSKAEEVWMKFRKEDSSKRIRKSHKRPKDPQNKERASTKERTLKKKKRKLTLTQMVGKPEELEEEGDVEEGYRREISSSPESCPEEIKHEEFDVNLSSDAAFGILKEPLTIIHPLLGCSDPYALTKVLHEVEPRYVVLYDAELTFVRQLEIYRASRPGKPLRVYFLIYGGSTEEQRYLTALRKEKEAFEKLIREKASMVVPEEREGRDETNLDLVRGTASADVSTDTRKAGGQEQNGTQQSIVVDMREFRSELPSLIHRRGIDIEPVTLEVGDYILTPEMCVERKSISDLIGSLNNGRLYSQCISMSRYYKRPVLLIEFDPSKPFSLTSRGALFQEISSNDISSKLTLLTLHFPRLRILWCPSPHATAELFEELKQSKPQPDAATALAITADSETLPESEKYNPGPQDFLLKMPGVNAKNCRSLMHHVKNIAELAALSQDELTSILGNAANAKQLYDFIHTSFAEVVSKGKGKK

[2] = target: T2, XPF R568K-Myc after the in vitro methylation assay with CARM1 (human, UniProt Q92889 1-916, R568K, subjected to the in vitro methylation assay with CARM1; methylated residues not stated)
T2 construct: also called R568K-Myc mutant after methylation assay
T2 sequence: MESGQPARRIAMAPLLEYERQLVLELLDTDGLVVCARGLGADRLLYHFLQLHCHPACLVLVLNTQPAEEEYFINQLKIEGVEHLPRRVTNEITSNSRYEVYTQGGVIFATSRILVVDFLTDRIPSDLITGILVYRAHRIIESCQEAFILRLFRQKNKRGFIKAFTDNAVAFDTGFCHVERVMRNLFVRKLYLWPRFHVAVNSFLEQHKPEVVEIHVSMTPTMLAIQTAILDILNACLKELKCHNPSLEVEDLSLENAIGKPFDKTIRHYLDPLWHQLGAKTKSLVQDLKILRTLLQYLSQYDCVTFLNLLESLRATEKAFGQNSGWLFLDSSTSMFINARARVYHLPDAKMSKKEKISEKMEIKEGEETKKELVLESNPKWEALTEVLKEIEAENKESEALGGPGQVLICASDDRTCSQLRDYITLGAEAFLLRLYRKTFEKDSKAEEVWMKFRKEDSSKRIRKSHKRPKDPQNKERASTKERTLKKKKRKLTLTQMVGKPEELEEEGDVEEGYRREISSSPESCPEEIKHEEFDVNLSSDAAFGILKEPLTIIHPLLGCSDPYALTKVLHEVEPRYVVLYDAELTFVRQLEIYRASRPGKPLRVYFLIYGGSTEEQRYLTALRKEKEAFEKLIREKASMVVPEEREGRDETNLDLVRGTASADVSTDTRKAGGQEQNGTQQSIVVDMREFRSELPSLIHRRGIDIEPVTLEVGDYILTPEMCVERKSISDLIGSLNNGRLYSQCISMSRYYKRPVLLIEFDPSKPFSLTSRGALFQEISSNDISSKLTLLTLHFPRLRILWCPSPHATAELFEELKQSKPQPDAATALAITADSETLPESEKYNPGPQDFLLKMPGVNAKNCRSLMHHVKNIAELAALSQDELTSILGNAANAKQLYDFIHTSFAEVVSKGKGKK

[3] = target: T3, in vitro translated XPF WT-Myc (human, UniProt Q92889 1-916)
T3 construct: XPF (xeroderma pigmentosum group F protein), human; source: in vitro translated (wheat germ cell-free system, pEU-E01-MCS); used as reaction mixture, and purified (Ni-NTA, anti-Myc magnetic beads, Myc peptide elution)
T3 sequence: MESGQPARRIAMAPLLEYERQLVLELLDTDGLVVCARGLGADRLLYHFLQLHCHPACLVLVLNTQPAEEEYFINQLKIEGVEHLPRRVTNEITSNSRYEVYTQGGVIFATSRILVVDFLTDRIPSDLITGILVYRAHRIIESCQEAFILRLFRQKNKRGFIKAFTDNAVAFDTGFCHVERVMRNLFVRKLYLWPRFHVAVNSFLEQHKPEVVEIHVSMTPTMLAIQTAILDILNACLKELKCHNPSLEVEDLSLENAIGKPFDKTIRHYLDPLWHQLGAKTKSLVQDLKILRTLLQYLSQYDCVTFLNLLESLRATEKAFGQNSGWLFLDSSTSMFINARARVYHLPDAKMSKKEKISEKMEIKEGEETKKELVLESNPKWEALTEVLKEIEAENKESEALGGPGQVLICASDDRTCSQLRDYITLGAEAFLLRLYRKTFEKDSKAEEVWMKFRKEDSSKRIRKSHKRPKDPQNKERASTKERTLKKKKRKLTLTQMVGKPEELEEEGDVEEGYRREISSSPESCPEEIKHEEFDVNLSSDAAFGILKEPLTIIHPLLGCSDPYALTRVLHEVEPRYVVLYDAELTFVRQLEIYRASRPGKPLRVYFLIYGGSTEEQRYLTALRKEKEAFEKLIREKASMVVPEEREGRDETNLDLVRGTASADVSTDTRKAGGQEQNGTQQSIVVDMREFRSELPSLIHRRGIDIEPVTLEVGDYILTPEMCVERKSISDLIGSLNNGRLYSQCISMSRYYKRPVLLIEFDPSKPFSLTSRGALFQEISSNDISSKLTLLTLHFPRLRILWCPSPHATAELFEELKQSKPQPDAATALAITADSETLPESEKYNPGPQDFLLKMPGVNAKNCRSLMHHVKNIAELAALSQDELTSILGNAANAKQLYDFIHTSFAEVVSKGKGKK

[4] = target: T4, XPF WT-Myc after CARM1-mediated methylation (human, UniProt Q92889 1-916, arginine methylation by CARM1 in vitro; the paper names R568 as the site whose methylation promotes binding to ERCC1)
T4 construct: XPF (xeroderma pigmentosum group F protein), human; also called methylated XPF WT-Myc
T4 sequence: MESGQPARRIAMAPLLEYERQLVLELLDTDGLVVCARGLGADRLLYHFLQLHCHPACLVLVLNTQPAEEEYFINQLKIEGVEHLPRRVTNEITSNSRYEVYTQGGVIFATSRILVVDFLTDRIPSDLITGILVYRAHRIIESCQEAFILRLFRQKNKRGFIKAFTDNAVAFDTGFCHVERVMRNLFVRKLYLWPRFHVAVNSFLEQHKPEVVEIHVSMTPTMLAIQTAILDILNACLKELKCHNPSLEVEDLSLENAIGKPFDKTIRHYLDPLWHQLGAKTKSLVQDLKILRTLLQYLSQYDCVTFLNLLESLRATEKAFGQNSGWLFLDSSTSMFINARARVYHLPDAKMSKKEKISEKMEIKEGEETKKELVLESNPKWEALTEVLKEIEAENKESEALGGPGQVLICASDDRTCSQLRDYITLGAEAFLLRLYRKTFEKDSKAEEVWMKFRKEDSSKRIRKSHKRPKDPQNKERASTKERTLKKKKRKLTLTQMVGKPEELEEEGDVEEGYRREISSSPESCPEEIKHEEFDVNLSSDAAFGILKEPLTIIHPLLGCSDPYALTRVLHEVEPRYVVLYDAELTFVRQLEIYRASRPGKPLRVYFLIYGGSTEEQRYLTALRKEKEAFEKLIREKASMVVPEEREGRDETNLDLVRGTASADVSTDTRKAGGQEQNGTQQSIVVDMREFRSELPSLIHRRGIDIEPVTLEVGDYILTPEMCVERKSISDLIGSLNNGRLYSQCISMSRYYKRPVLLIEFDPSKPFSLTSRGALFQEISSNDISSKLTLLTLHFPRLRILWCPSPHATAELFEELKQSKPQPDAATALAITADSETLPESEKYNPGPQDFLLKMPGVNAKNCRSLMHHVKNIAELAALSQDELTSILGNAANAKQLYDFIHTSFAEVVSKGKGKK

Measured: binding result

B1: GST-ERCC1 (natural protein, human)
chain: MDPGKDKEGVPQPSGPPARKKFVIPLDEDEVPPGVAKPLFRSTQSLPTVDTSAQAAPQTYAEYAISQPLEGAGATCPTGSEPLAGETPNQALKPGAKSNSIIVSPRQRGNPVLKFVRNVPWEFGDVIPDYVLGQSTCALFLSLRYHNLHPDYIHGRLQSLGKNFALRVLLVQVDVKDPQQALKELAKMCILADCTLILAWSPEEAGRYLETYKAYEQKPADLLMEKLEQDFVSRVTECLTTVKSVNKTDSQTLLTTFGSLEQLIAASREDLALCPGLGPQKARRLFDVLHEPFLKVP
notes: ERCC1 (excision repair cross-complementation group 1), human; also called E1; excision repair cross-complementation group 1; source: E. coli BL21 (pGEX 4T-3), purified (glutathione beads)
binds: [1] | [2] | [3] | [4]
